In patent US20260007740A1 (SPYBIOTECH, published 2026):

Target: T1, SpyCatcher-HBsAg (Hepatitis B virus (adw serotype) for …)
T1 construct: Expressed in Pichia pastoris; also called HBsAg VLP monomer; SpyCatcher-HBsAg VLP
Assay: isopeptide conjugation in TBS, followed by SDS-PAGE and Western blot

B1: RSV-F-SpyTag (RSV-F Sc9-10 DS-Cav1 A149C Y458C-SpyTag-Ctag) (other)
chain: QNITEEFYQSTCSAVSKGYLSALRTGWYTSVITIELSNIKENKCNGTDAKVKLIKQELDKYKNAVTELQLLMQSTPATGSGSAICSGVAVCKVLHLEGEVNKIKSALLSTNKAVVSLSNGVSVLTFKVLDLKNYIDKQLLPILNKQSCSISNIETVIEFQQKNNRLLEITREFSVNAGVTTPVSTYMLTNSELLSLINDMPITNDQKKLMSNNVQIVRQQSYSIMCIIKEEVLAYVVQLPLYGVIDTPCWKLHTSPLCTTNTKEGSNICLTRTDRGWYCDNAGSVSFFPQAETCKVQSNRVFCDTMNSRTLPSEVNLCNVDIFNPKYDCKIMTSKTDVSSSVITSLGAIVSCYGKTKCTASNKNRGIIKTFSNGCDYVSNKGVDTVSVGNTLYCVNKQEGKSLYVKGEPIINFYDPLVFPSDEFDASISQVNEKINQSLAFIRKSDELLSAIGGYIPEAPRDGQAYVRKDGEWVLLSTFLGSGGSGAHIVMVDAYKPTKEPEA
notes: Pre-fusion-stabilised single-chain RSV F with T4 fibritin trimerisation motif; Expressed in ExpiCHO cells, purified through the C-tag; also called RSV-F-SpyTag-Ctag; RSF-F-SpyTag
binding result: binds
